Our source for the Kd values is paper PMC5997747.

Broadly, the Kd is the equilibrium constant for the complex coming apart.

The labels stand for the following.
B1: recombinant human NCAM2 FnIII1-2 double domain (expressed in E. coli) (domain or fragment)
chain: SPYGVKIIELSQTTAKVSFNKPDSHGGVPIHHYQVDVKEVASEIWKIVRSHGVQTMVVLNNLEPNTTYEIRVAAVNGKGQGDYSKIEIFQTLPVREPSPPSIHGQPSSGKSFKLSITKQDDGGAPILEYIVKYRSKDKEDQWLEKKVQGNKDHIILEHLQWTMGYEVQITAANRLGYSEPTVYEFSMPPKPNIIKD
B2: recombinant human NCAM2 FnIII1 domain (domain or fragment)
chain: SPYGVKIIELSQTTAKVSFNKPDSHGGVPIHHYQVDVKEVASEIWKIVRSHGVQTMVVLNNLEPNTTYEIRVAAVNGKGQGDYSKIEIFQTLPV

In this assay the target is FGFR1β (IIIc)/Fc chimera. Kind of assay: SPR; BIAcore 2000, 25 °C, 10 mM PBS pH 7.4; about 1000 RU FGFR1β (IIIc)/Fc and 750 RU human IgG1 Fc (control cell) immobilised on a CM4 chip by amine coupling; NCAM2 domains injected at 20-30 μl/min; steady state affinity fit, Kd roughly estimated.
“NCAM2 FnIII1-2 domains expressed from P. pastoris (domain or fragment)”: the dissociation constant (Kd) is 400 nM.

Regarding “recombinant human NCAM2 FnIII2 domain (from UniProt O15394 592-693) (domain or fragment)”, the Kd is 4400 nM.

Take B1: the Kd is 130 nM.

Regarding B2, the equilibrium dissociation constant (Kd) was 290 nM.
